Assay results from patent US11510992 (dated 2022).

Biological target: Conjugate 45b (human, UniProt P0DOX5 203-448 = IgG part)
Test: ELISA

Row | Binder | binding result
1 | human Fcγ RIIb (receptor, UniProt P31994 43-217, looked up) TPAAPPKAVLKLEPQWINVLQEDSVTLTCRGTHSPESDSIQWFHNGNLIPTHTQPSYRFKANNNDSGEYTCQTGQTSLSDPVHLTVLSEWLVLQTPHLEFQEGETIVLRCHSWKDKPLVKVTFFQNGKSKKFSRSDPNFSIPQANHSHSGDYHCTGNIGYTLYSSKPVTITVQAP | binds
2 | murine Fcγ RIIb (receptor, mouse, UniProt P08101 30-210, looked up, also called mouse FcγR2B/CD32b) THDLPKAVVKLEPPWIQVLKEDTVTLTCEGTHNPGNSSTQWFHNGRSIRSQVQASYTFKATVNDSGEYRCQMEQTRLSDPVDLGVISDWLLLQTPQLVFLEGETITLRCHSWRNKLLNRISFFHNEKSVRYHHYSSNFSIPKANHSHSGDYYCKGSLGRTLHQSKPVTITVQGPKSSRSLP | binds
